Results reported in the nanobody polyreactivity screen of Harvey et al. (2022).

Experiment: yeast display, Sf9 membrane polyspecificity reagent, FACS + sequencing; frameworks hold sequencing errors
Outline: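 Nanobodies from a synthetic yeast display library (Saccharomyces cerevisiae BJ5465), induced 36–48 hours with galactose, were stained 1 hour at 4 °C with 10% biotinylated, detergent-solubilized Sf9 membrane reagent, enriched on streptavidin microbeads, then FACS-sorted. Anti-HA (expression) and streptavidin (reagent binding) fluorescence set low and high (top ~1%) gates. Polyreactivity labels come from the gate of origin. Genes were colony-PCR amplified, MiSeq 2 × 250 sequenced and filtered by CDR length.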

Sequence	polyreactivity (PSR sort gate)
QVQLVESGGGLVQAGGSLRLSCAASGYIFVVNAMGWYRQAPGKERELVAAIDWGGGSTYADSVKGRFTISRDNAKNTVYLQMYSLKPEDTAVYYCAADLWPYPNDYWGQGTQVTVSS	low polyreactivity
QVQLVESGGGLVQAGGSLRLSCAASGYIFWSNTMGWYRQAPGKERELVAAISQSTASTYYADSVKGRFTISRDNAKNTVYLQMNSLKPEDTAVYYCAAYYNFGDYEYDYWGQGTQVTVSS	low polyreactivity
QVQLVESGGGLVQAGGSLRLSCAASGYIFYANAMGWYRQAPGKERELVASISTGGNTNYADSVKGRFTISRDNAKNTVYLQMKSLKPEDTAVYYCAVRSTVPYLWRTPVTRDYWGQGTQVTVSS	low polyreactivity
QVQLVESGGGLVQAGGSLRLSCAASGYIFYIYAKGWNRQAPGKERELVAAISYSDGTTYYADSVKGRFTISRDNAKNTVYLQMNSLKAEDTAVYYCAADLWVGLVSLWDGYVEYDYWGQGTQVTVSS	low polyreactivity
QVQLVESGGGLVQAGGSLRLSCAASGYIFYYNTMGWYRQAPGKERELVAAISATGGRTYYADSVKGRFTISRDNAKNTVYLQMNSLKPEDTAVYYCAKRGISPYGYWGQGTQVTVSS	high polyreactivity
QVQLVESGGGLVQAGGSLRLSCAASGYIFYYYAMGWYRQAPGKERELVAAINRSGTSTYYADSVKGRFTISRDNAKNTVYLQMNSLKPEDTAVYYCAAVAGNKLYYWGQGTQVTVSS	high polyreactivity
QVQLVESGGGLVQAGGSLRLSCAASGYIIGRYVMGWYRQAPGNERELVAAITASGGSTNYADSVKGRFTISRDNAKNTVYLQMNSLKPEDTAVYYCAADYSWYYFDFEYWGQGTQVTVSS	high polyreactivity
QVQLVESGGGLVQAGGSLRLSCAASGYILFAYAMGWYRQAPGKERALVATITTSGGITYYADSVKGRFTISRDNAKNTVYLQMNSLKPEDTAVYYCAAAEGGGLVTYDYWGQGTQVTVSS	low polyreactivity
QVQLVESGGGLVQAGGSLRLSCAASGYILQINAMGWYRQAPGKERELVAAISISGGNTYYADSVKGRFTISRDNAKNTVYLQMNSLKPEDTAVYYCAAYRYYSYLVRYGLLLAYYYWGQGTQVTVSS	low polyreactivity
QVQLVESGGGLVQAGGSLRLSCAASGYILWNAIGWYRQAPGKERELVAAITSGGSTYYADSVKGRFSISRDNAKNTVYLQMNSRKPEDTAVYDCNQESYFDTYRRYDSWGQGTQETVSS	low polyreactivity
QVQLVESGGGLVQAGGSLRLSCAASGYILYPYAMGWYRQAPGKERELVAAIRQRGGSTYYADSVKGRFTISRDYAKNTVYLQMNSLKPEDTAVYYCAAYLSPKRALTRGYGYWGQGTQVTVSS	high polyreactivity
QVQLVESGGGLVQAGGSLRLSCAASGYISDTNAMGWYRQAPGKEREFVAVISSSVGSTYYADSVKGRFTISRDNAKNTVYLQMNSLKPEDTAVYYCNAEFNTVFLYWSLDSVRGYDYWGQGTQVTVSS	high polyreactivity
QVQLVESGGGLVQAGGSLRLSCAASGYIVRNAMGWYRQAPGKERELVAAISRRGGSTYYADSVKGRFTISRDNAKNTVYLQMNSLKPEDTAVYYCAKDKVIPSFDADYYYWGQGTQVTVSS	high polyreactivity
QVQLVESGGGLVQAGGSLRLSCAASGYIVTSYTMGWYIQAPGKERELVAAISASDGSTYADSVKGRFTISRDNAKNTVYLQMNSLKPEDTAVYYCNKAAYGGHRTSEQVGWVYLYDYWGQGTQVTVSS	low polyreactivity
QVQLVESGGGLVQAGGSLRLSCAASGYIYYYYAMGWYRQAPVKERELVAAITFSGGSTYYADSVKGRFTISRDNAKNTVYLQMNSLKPEDTAVYYCAKVELRDSALLGSDEYDYLGQGTQVTVSS	low polyreactivity
QVQLVESGGGLVQAGGSLRLSCAASGYLLGHYAMGWYRQATGKERELVAAISWSGGSTSYADSVKGRFTISRDKAKITFYLQMNSLKREDTAVYDCASAYYAYSRHAGGYWGQGTQVTVSS	low polyreactivity
QVQLVESGGGLVQAGGSLRLSCAASGYNFGWYAMGWYRQAPGKERELVAGISSAGSTNYADSVKGRFTISRDNAKNTVYLQMNSLKPEDTSVDYCARDKWGLRYAPTVDYWGQGTQVTVSS	high polyreactivity
QVQLVESGGGLVQAGGSLRLSCAASGYSFQKYGMGWYRQAPGKERELVAAITRSSGNTYYADSVKGRFTISRDTAKNTVYLQMNSLKPEDTAVYDCAAFYWGGVKYNYWGQGTQVTVSS	high polyreactivity
QVQLVESGGGLVQAGGSLRLSCAASGYSFRIYAMGWYRQAPGKERELVATITNGGSTHYADSEKGRFTISRDNAKNTVYLQMNSLKPEDTAVYYCAAYLPGWELRDYGYWGQGTQVTVSS	high polyreactivity
QVQLVESGGGLVQAGGSLRLSCAASGYSFSPNAMGWYRQEPGKDRELVAAISSGVSTDYADSVKGRFSISRDNAKNTVYLQMNSLKPEDTAVYYCAADDQYRVTLGYVYWGQGTQVTVSS	low polyreactivity

Sequence	polyreactivity (PSR sort gate)
QVQLVESGGGLVQAGGSLRLSCAASGYTFAGNAMGWYRQAAGKERELVAAISRSGGRTYYADSVKGRFTISRDNAKNTVYLQMNSLNPEDTAVYYCAAYFPRTLFEFGYWGQGTQVTVSS	high polyreactivity
QVQLVESGGGLVQAGGSLRLSCAASGYTFALYAMGWYRQAPGKERELVAAITDSDGSTYADSVKGRFTISRDNAKNTVYLQMNSLKPEDNAVYYCAGRDPHLQGSSYLSYLTMDYWGQGTQVTVSS	low polyreactivity
QVQLVESGGGLVQAGGSLRLSCAASGYTFATKVMGWYRQAPGKERELVATITGSGGSTYYADSVKGRLTISRDNAKNTVYLQMNSLTPEDTAVYNCAARLYGWYYGGYTRYDYWGQGTQVTVSS	high polyreactivity
QVQLVESGGGLVQAGGSLRLSCAASGYTFCVYVMGWYRQAPGKERELVAAISGSTYYADSVKGRFTISRDNAKNTVYLQMNSLKPEDTAVYYCAAESYFFSPRTREKFDYWGQGTQVTVSS	low polyreactivity
QVQLVESGGGLVQAGGSLRLSCAASGYTFDINAMGWYRQAPGKERELVADISANDGSTSYADSVKGRFTISRDNAKNTVYLQMNSLKPEDTAVYYCAADYIWNPTWSVGYGDPGYDYCGQGTQVTVSS	low polyreactivity
QVQLVESGGGLVQAGGSLRLSCAASGYTFDPNAMGWYRQAPGKERELVAAISRIGGSTYYADSVKGRFTISRDNAKNTVYLQMKSLKPEDTAVYYCAVDWYLTGHWADDYWGQGTQVTVSS	low polyreactivity
QVQLVESGGGLVQAGGSLRLSCAASGYTFDTNVMGWYRQEPGKERELVATITGSGGSTYYADSVKGRFTISRDNAKNTVYLEMNSLKPEDTAVYYCAAYCYRYSFHWLKRWPYDWGQGTQVTVSS	high polyreactivity
QVQLVESGGGLVQAGGSLRLSCAASGYTFDYYAMGWYRQAPGKERELVAAIRRGGSTYYADSVKGRFTISRDNAKNTVYLQMNSLKPEDTAVYYCAAVIYRDGTIYDYWGQGTQVTVSS	high polyreactivity
QVQLVESGGGLVQAGGSLRLSCAASGYTFEDNAMGWYRQAPRKESELVAAIDWSGDSTYYADSVKGRFTISRDNAKNTVYLQMNSLKPEDTAVYYCAADYTTWTDMDYWGQGTQVTVSS	low polyreactivity
QVQLVESGGGLVQAGGSLRLSCAASGYTFFFNVMGWYRQAPGKVRELVAAISYSGGSTNYADSVKGRFTISRDNAKNTVYLQMNSLKPEDTAVYYCNARSVSRNGYEDVYWGQGTQVTVSS	low polyreactivity
QVQLVESGGGLVQAGGSLRLSCAASGYTFFYMGWYRQAPGKEREFVAVITYSGGSTYYADSVKGRFTISRDNAKNTVYLQMNSLKPEDTAVYYCAAAVWHYGRPGYLDSGYDYWGQGTQVTVSS	low polyreactivity
QVQLVESGGGLVQAGGSLRLSCAASGYTFFYYAMGWYRQAPGKERELVASISWNGGSTYYADSVKGRFTISRDNGKNTVYLQMNSLKPEDTAVYYCAADSPRPRLTSYGYIGGEYYYWGQGTQVTVSS	low polyreactivity
QVQLVESGGGLVQAGGSLRLSCAASGYTFGHYVMGWYRQAPGKERELVAAISRSGGSTYYADSVKGRFTISRDNAKNTVYLQMNSLKPEDTAVYYCARGRIGGGAPGDKSSLNYYYWGQGTQVTVSS	high polyreactivity
QVQLVESGGGLVQAGGSLRLSCAASGYTFGSYAMGWYRPAPGKERELVAAITPGGSTYYADSVKGRFTISRDNAKNTVYLQMNSLKPEDTAVYYCNRATRYWKAYYWFKTMDYWGQGTQVTVSS	high polyreactivity
QVQLVESGGGLVQAGGSLRLSCAASGYTFGYYALGRYRPAPGKERELVAAISSGGITKYADSVKGRFTISRENAKNTVYLQMNSLKPEDTAVYYCAASWYRYRFIRYDYWGQGTQVTVSS	high polyreactivity
QVQLVESGGGLVQAGGSLRLSCAASGYTFGYYAMGWYRQAPGKERELVAAISYSGGNTYYADSVKGRFTISRDNAKNTVYLQMNSLKPEDTAVYYCNKRYWVRTGKVSSYAYWGQGTQVTVSS	high polyreactivity
QVQLVESGGGLVQAGGSLRLSCAASGYTFKAYAMGWYRQAPGKERELVAAISWSGARTYYADSVKGRFTISRDNAKNTVYLQMNSLKPEDTAVYYCAASNAVYAGRSYRDEFWGQGTQVTVSS	high polyreactivity
QVQLVESGGGLVQAGGSLRLSCAASGYTFKRNDMGWYRQAPGKERELVAAISKSGGSTYYADSVKGRFTISRDNAKNTVYLQMNSLKPEDTAVYYCPGPLPYYGQYDYWGQGTQVTVSS	low polyreactivity
QVQLVESGGGLVQAGGSLRLSCAASGYTFKYNAMGWYRQAPGKERELVAAISSRGDRTYYADSVKGRFTISRDNAKNTVYLQMNSLKPEDTVVYYCNKVARPRSRNDSWGQGTQVTVSS	high polyreactivity
QVQLVESGGGLVQAGGSLRLSCAASGYTFLDYAMGWYRQAPGKERELFAAINSGGSTYYADSVKGRFTISRDNAKNSVYFQMNSLNPEDTAVSYCAREDYVSYRLLYYLFDYWGQGTQVTVSS	low polyreactivity
